# Literature values as cited in paper PMC4776130.
# Like-named read-outs stand apart in the source and are kept apart here.
# Legend:
# Asp51 = Asp51 (UniProt position 72, EDAVLDVQGIA); assay: NMR; details: HdeA dimer (remains dimeric from pH 6 down to pH 3)
# Asp76 = Asp76 (UniProt position 97, QANFKDKVKGE); assay: NMR; details: HdeA dimer (remains dimeric from pH 6 down to pH 3)
# Asp20 = Asp20 (UniProt position 41, SWTCEDFLAVD); assay: NMR; details: HdeA dimer (remains dimeric from pH 6 down to pH 3)
# Glu46 = Glu46 (UniProt position 67, NKDKPEDAVLD); assay: NMR; details: HdeA dimer (remains dimeric from pH 6 down to pH 3)
# Asp43 = Asp43 (UniProt position 64, ALNNKDKPEDA); assay: NMR; details: HdeA dimer (remains dimeric from pH 6 down to pH 3)
# Glu26 = Glu26 (UniProt position 47, FLAVDESFQPT); assay: NMR; details: HdeA dimer (remains dimeric from pH 6 down to pH 3)
# Asp69 = Asp69 (UniProt position 90, QACTQDKQANF); assay: NMR; details: HdeA dimer (remains dimeric from pH 6 down to pH 3)
# Asp25 = Asp25 (UniProt position 46, DFLAVDESFQP); assay: NMR; details: HdeA dimer (remains dimeric from pH 6 down to pH 3)
# Glu19 = Glu19 (UniProt position 40, NSWTCEDFLAV); assay: NMR; details: HdeA dimer (remains dimeric from pH 6 down to pH 3)
# Glu81 = Glu81 (UniProt position 102, DKVKGEWDKIK); assay: NMR; details: HdeA dimer (remains dimeric from pH 6 down to pH 3)
# Asp83 [1] = target: Asp83 (UniProt position 104, VKGEWDKIKKD); assay: NMR; details: HdeA dimer (remains dimeric from pH 6 down to pH 3)
# Asp47 = Asp47 (UniProt position 68, KDKPEDAVLDV); assay: NMR; details: HdeA dimer (remains dimeric from pH 6 down to pH 3)
# His15 [2] = target: T1, His15 (UniProt position 33, AAMKRHGLDNY); assay: NMR
# His15 [3] = target: T1, His15
# Asp95 = Asp95 (UniProt position 177, AYIYADGKMVN); details: folded SNase Delta+PHS
# Asp77 = Asp77 (UniProt position 159, IEVEFDKGQRT); details: folded SNase Delta+PHS
# Glu52 = Glu52 (UniProt position 134, PKKFNEKYGPE); details: folded SNase Delta+PHS
# Glu10 = Glu10 (UniProt position 92, KKLHKEPATLI); details: folded SNase Delta+PHS
# Glu122 = Glu122 (UniProt position 204, GNNTHEQLLRK); details: folded SNase Delta+PHS
# Glu129 = Glu129 (UniProt position 211, LLRKAEAQAKK); details: folded SNase Delta+PHS
# Asp40 = Asp40 (UniProt position 122, RLLLVDTPETK); details: folded SNase Delta+PHS
# Glu67 = Glu67 (UniProt position 149, TKKMVENAKKI); details: folded SNase Delta+PHS
# Asp21 = Asp21 (UniProt position 103, KAIDGDTVKLM); details: folded SNase Delta+PHS
# Glu73 = Glu73 (UniProt position 155, NAKKIEVEFDK); details: folded SNase Delta+PHS
# Asp19 = Asp19 (UniProt position 101, LIKAIDGDTVK); details: folded SNase Delta+PHS
# Glu101 = Glu101 (UniProt position 183, GKMVNEALVRQ); details: folded SNase Delta+PHS
# Glu57 = Glu57 (UniProt position 139, EKYGPEASAFT); details: folded SNase Delta+PHS
# His8 = His8 (UniProt position 90, STKKLHKEPAT)
# Glu135 = Glu135 (UniProt position 217, AQAKKEKLNIW); details: folded SNase Delta+PHS
# Glu75 = Glu75 (UniProt position 157, KKIEVEFDKGQ); details: folded SNase Delta+PHS
# His121 = His121 (UniProt position 203, KGNNTHEQLLR)
# Glu43 = Glu43 (UniProt position 125, LVDTPETKHPK); details: folded SNase Delta+PHS
# Asp83 [4] = target: Asp83 (UniProt position 165, KGQRTDKYGRG); details: folded SNase Delta+PHS
substance,measurement,setting,value
Acid stress chaperone HdeA (Escherichia coli),pKa,Asp51,3.83
same,pKa,Asp76,3.75
same,pKa,Asp20,3.66
same,pKa,Glu46,4.07
same,pKa,Asp43,3.87
same,pKa,Glu26,4.57
same,pKa,Asp69,3.74
same,pKa,Asp25,3.71
same,pKa,Glu19,4.38
same,pKa,Glu81,4.23
same,pKa,Asp83 [1],3.97
same,pKa,Asp47,4.14
Hen egg-white lysozyme (HEWL) (Gallus gallus),pKa,His15 [2],5.5 ± 0.2
same,pKa,His15 [3],5.68–5.74
"Staphylococcal nuclease (SNase), Delta+PHS variant (Staphylococcus aureus; G50F;V51N;P117G;H124L;S128A;del44-49)",pKa,Asp95,2.16
same,pKa,Asp77,<2.2
same,pKa,Glu52,3.93
same,pKa,Glu10,2.82
same,pKa,Glu122,3.89
same,pKa,Glu129,3.75
same,pKa,Asp40,3.87
same,pKa,Glu67,3.76
same,pKa,Asp21,6.54
same,pKa,Glu73,3.31
same,pKa,Asp19,2.21
same,pKa,Glu101,3.81
same,pKa,Glu57,3.49
same,pKa,His8,6.50
same,pKa,Glu135,3.76
same,pKa,Glu75,3.26
same,pKa,His121,5.25
same,pKa,Glu43,4.32
same,pKa,Asp83 [4],<2.2
